The test addresses T1, human GIP receptor (human, UniProt P48546 22-466).
T1 sequence (looked up): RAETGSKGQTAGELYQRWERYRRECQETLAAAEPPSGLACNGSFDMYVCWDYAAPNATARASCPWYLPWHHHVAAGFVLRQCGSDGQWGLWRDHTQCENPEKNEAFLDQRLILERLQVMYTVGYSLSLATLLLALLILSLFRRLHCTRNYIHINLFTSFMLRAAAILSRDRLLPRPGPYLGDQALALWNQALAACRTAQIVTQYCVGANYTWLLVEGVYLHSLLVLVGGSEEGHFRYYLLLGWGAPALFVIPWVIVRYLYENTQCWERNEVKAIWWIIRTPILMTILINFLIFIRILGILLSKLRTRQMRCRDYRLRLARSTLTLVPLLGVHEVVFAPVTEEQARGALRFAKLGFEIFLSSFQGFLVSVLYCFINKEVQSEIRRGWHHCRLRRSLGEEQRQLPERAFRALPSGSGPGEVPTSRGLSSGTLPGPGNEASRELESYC
As to the kind of experiment: cell-based or functional assay.

B1: AT456 (peptide)
peptide: TFISDYKIAMDKIHQQDFVNWLLAQKGK
HELM: PEPTIDE1{T.F.I.S.D.Y.K.I.A.M.D.K.I.H.Q.Q.D.F.V.N.W.L.L.A.Q.K.G.K}|PEPTIDE2{[O=C(O)CCCCCCCCCCCCCCC(=O)[*:2]].[gGlu]}$PEPTIDE1,PEPTIDE2,7:R3-2:R2$$$V2.0; N-terminus assumed
SMILES: CC[C@H](C)[C@H](NC(=O)[C@H](CCCCNC(=O)CC[C@H](NC(=O)CCCCCCCCCCCCCCC(=O)O)C(=O)O)NC(=O)[C@H](Cc1ccc(O)cc1)NC(=O)[C@H](CC(=O)O)NC(=O)[C@H](CO)NC(=O)[C@@H](NC(=O)[C@H](Cc1ccccc1)NC(=O)[C@@H](N)[C@@H](C)O)[C@@H](C)CC)C(=O)N[C@@H](C)C(=O)N[C@@H](CCSC)C(=O)N[C@@H](CC(=O)O)C(=O)N[C@@H](CCCCN)C(=O)N[C@H](C(=O)N[C@@H](Cc1c[nH]cn1)C(=O)N[C@@H](CCC(N)=O)C(=O)N[C@@H](CCC(N)=O)C(=O)N[C@@H](CC(=O)O)C(=O)N[C@@H](Cc1ccccc1)C(=O)N[C@H](C(=O)N[C@@H](CC(N)=O)C(=O)N[C@@H](Cc1c[nH]c2ccccc12)C(=O)N[C@@H](CC(C)C)C(=O)N[C@@H](CC(C)C)C(=O)N[C@@H](C)C(=O)N[C@@H](CCC(N)=O)C(=O)N[C@@H](CCCCN)C(=O)NCC(=O)N[C@@H](CCCCN)C(=O)O)C(C)C)[C@@H](C)CC
For the molecule B1, the “cAMP antagonism” value was 60 nM, the “cAMP antagonism % inhib” value stood at 85% and the cAMP antagonism log was -7.2 log M.

B2: AT455 (peptide)
peptide: TFISDYKIAMDKIHQQDFVNWLLAQKG
HELM: PEPTIDE1{T.F.I.S.D.Y.K.I.A.M.D.K.I.H.Q.Q.D.F.V.N.W.L.L.A.Q.K.G}|PEPTIDE2{[O=C(O)CCCCCCCCCCCCCCC(=O)[*:2]].[gGlu]}$PEPTIDE1,PEPTIDE2,7:R3-2:R2$$$V2.0; N-terminus assumed
SMILES: CC[C@H](C)[C@H](NC(=O)[C@H](CCCCNC(=O)CC[C@H](NC(=O)CCCCCCCCCCCCCCC(=O)O)C(=O)O)NC(=O)[C@H](Cc1ccc(O)cc1)NC(=O)[C@H](CC(=O)O)NC(=O)[C@H](CO)NC(=O)[C@@H](NC(=O)[C@H](Cc1ccccc1)NC(=O)[C@@H](N)[C@@H](C)O)[C@@H](C)CC)C(=O)N[C@@H](C)C(=O)N[C@@H](CCSC)C(=O)N[C@@H](CC(=O)O)C(=O)N[C@@H](CCCCN)C(=O)N[C@H](C(=O)N[C@@H](Cc1c[nH]cn1)C(=O)N[C@@H](CCC(N)=O)C(=O)N[C@@H](CCC(N)=O)C(=O)N[C@@H](CC(=O)O)C(=O)N[C@@H](Cc1ccccc1)C(=O)N[C@H](C(=O)N[C@@H](CC(N)=O)C(=O)N[C@@H](Cc1c[nH]c2ccccc12)C(=O)N[C@@H](CC(C)C)C(=O)N[C@@H](CC(C)C)C(=O)N[C@@H](C)C(=O)N[C@@H](CCC(N)=O)C(=O)N[C@@H](CCCCN)C(=O)NCC(=O)O)C(C)C)[C@@H](C)CC
Take B2: the “cAMP antagonism” value was 31 nM, the “cAMP antagonism % inhib” value was found to be 95% and the cAMP antagonism log was -7.5 log M.
